Laboratory results as given in US20160130575, “SCREENING OF NUCLEIC ACID AGENTS VIA PARTICLE DISPLAY” (THE REGENTS OF THE UNIVERSITY OF CALIFORNIA, published 2016).

Legend:
[1] = biological target: Apolipoprotein E3 (ApoE3) (Homo sapiens, UniProt P02649 P02649:19-317); assay: flow; FP-only particle negative control, 3 nM ApoE; settings: tags: His6; biotinylated (NHS-PEO4); R&D Systems
[2] = biological target: Plasminogen activator inhibitor-1 (PAI-1) (Homo sapiens, UniProt P05121 P05121:24-402); assay: flow; FP-only particle negative control, 1 nM PAI-1; settings: tags: His6; biotinylated (NHS-PEO4); Millipore
[3] = biological target: 4-1BB/TNFRSF9/CD137 Fc chimera (Homo sapiens, UniProt Q07011 Q07011:24-186); assay: flow; FP-only particle negative control, 4 nM 4-1BB; settings: tags: Fc fusion; His6; biotinylated (NHS-PEO4); R&D Systems; chain copies: 2
[4] = biological target: alpha-thrombin (Homo sapiens, UniProt P00734;P00734 P00734:328-363,P00734:364-622); assay: flow; FP-only particle negative control, 20 pM thrombin

Measured: binding result

4-1BB/TNFRSF9/CD137 Fc chimera, sequence (Q07011 24-186, change not shown, one chain of several): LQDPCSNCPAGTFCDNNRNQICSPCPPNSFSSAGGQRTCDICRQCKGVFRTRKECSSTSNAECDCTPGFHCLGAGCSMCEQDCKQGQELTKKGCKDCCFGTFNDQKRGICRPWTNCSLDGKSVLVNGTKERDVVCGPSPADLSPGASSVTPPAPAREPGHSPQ
Apolipoprotein E3 (ApoE3), sequence (P02649 19-317, one chain of several): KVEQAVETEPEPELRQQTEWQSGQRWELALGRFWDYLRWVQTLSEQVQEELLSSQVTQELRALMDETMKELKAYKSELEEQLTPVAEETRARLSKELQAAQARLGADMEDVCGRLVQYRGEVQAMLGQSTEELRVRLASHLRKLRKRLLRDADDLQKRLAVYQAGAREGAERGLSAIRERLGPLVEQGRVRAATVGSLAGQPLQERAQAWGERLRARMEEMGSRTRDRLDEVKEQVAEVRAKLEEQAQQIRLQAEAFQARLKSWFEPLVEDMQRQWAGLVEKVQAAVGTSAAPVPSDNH
Plasminogen activator inhibitor-1 (PAI-1), sequence (P05121 24-402, one chain of several): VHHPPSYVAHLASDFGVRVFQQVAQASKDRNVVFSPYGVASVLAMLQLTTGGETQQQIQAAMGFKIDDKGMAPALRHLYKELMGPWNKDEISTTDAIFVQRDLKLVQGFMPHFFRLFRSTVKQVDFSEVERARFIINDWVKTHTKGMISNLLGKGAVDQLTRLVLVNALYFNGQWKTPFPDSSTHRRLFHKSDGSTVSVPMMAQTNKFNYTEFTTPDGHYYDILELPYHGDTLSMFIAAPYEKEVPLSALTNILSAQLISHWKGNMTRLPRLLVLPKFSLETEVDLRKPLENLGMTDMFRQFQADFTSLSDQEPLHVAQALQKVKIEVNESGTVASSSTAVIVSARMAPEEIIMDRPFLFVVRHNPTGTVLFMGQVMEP

B1: Forward primer (FP) control (ssDNA)
DNA: AGCAGCACAGAGGTCAGATG
modifications: 5'-amino-PEG18, coupled to magnetic particle
no binding: [1] | [2] | [3] | [4]
